According to the DeepSol protein solubility set:

experiment: soluble on expression in E. coli; label from the status in PepcDB or PDB records

Q: For “MSLNTYLNEISKFVDENREEIVSLWKEIVNMESYTHCKESVNKLAERLKLEFEKEGLDCELVDVGDNGSTLIGTLGSNIDKKPIIFSGHMDTVFETGTFGENPFKIIEGKAYGPGVLDMKGGIIISLYVIKALNKIGYKERPIKIVFSGDEEIGHKDSTGADVILREAKGGLCAFNMETGLVDNSLCVGRKGRIGCNIHVKGVETHAGNDFEGGRNAIEEMANKILRIQKLTNLDVGTTVSVSVIKGGRVENSIPEDCSIKVDLRFEKVEEMENVKEQVREICKETYIEGTSTEVNFISEMMPFETTEDVMRFHTFVNEVSKENGFGELNAKRLGGSSDASYLTIANVPTICSFGVRGEWNHTSREYAVVDSMFERVKLISTVILNLDKFEEGHHHHHH”, which “soluble on expression in E. coli” value is on record?
A: soluble

Q: For “MSVQSITESNQPPVICLMGPTASGKTALAMALKDALPCDIVSVDSALIYRDMDIGTAKPTKSELVQYPHRLIDLRDASESYSAADFCRDALVEIAEIRSNGRIPLLVGGTMMYFKSLIEGISPLPTANPEIRQAIEAEALSKGWQAMHDQLAEIDPVSAERIHPNDPQRITRALEVYRLTSNTLTQLTQIKGAKLAGDVLQLAITPRERSTLHERIALRYQQMIDLGFEQEVIKLKSRDDLHQDLPSIRCVGYRQMWQHLEGEFDHDEMIFRGVCATRQLAKRQLTWLRNWPDLHWLTTDDKTNLAQVLSLLEAKH”, which “soluble on expression in E. coli” value is on record?
A: not soluble

Q: With “MAFSASIEDYALIGDQQSAALVARDGSIDWLCLPRFDSPACFAALLGDEHNGKWRIAPKGAGPCTRRAYRTDSLVLDSEWDTPEGTLRVTDLMPQRDSAPDLVRIVEGLRGRVTVRSAIRLRFDYGLEHHHHHH” as the sequence, how does the “soluble on expression in E. coli” value read?
A: not soluble

Q: With “DTRNEAEACLRYVKTKFARTMLGILKATQDNPKETWRLVPLQDFTAESDIDWTQPVAEIDRQLYRKYGLNESEIAFVEEKVRPMD” as the sequence, how does the “soluble on expression in E. coli” value read?
A: not soluble

Q: Which “soluble on expression in E. coli” value does the source give for “MGSDKIHHHHHHMSRILNTEIIIPIIEKLVKKACYELDDNLMCSFRKAYDKEESKIGKETIKILIDNGEYAKKEQLACCHDTGTCIVIMEIGQHVCWEGKPLKDQVNQGVRQGYENGYLRKSMVADPLERINTNDNTPAILHTEIVDGDRVTITVMPKGGGSENMGTFKTLLPGDGIDGIKDFVLETVRRVGGNPCPPYIIGIGVGGTMDHCSWMAKKALLRPLGEFNAKPLYAQLEAELLEAVNNTGIGPLGMGGRITALGVHVDYYPCHITALPVAINFQCNASRHASEII” here?
A: not soluble

Q: For “MSLSYTTQQIIEKLRELKIVPVIALDNADDILPLADTLAKNGLSVAEITFRSEAAADAIRLLRANRPDFLIAAGTVLTAEQVVLAKSSGADFVVTPGLNPKIVKLCQDLNFPITPGVNNPMAIEIALEMGISAVKFFPAEASGGVKMIKALLGPYAQLQIMPTGGIGLHNIRDYLAIPNIVACGGSWFVEKKLIQSNNWDEIGRLVREVIDIIKEGGSHHHHHH”, which “soluble on expression in E. coli” value is on record?
A: soluble

Q: Which “soluble on expression in E. coli” value does the source give for “MNNTVKTDGDSVSGRDLPITKISEDRFERSAYSAQLANIICDVAPWGASTVFSLTGQWGSGKTSLVNLIRSEESLSNEKWTIVDFNPWVASDPQSLIEEFYRVIVGTVPDDKTGQKIKTVLQKTFSTIGSIAGGVGGFGVLEALALSKGVDAANAVYKTWKQEQDSWPTLYTRAANHFKDLNKRILIVVDDIDRLHTDELALLMKVIRLLGRFPQVNYLLVYEEESLLTTLARSTAVGGSEDDALRFMEKIVQYPFDVPPLTSFQIEKELSALFDKLFQGVSLSGDPEDFALVKSRMFDVWEKTLVTPRLLHRFAALLTNWTRIYGSGEVNGVDLTILATIRIVFPSVYKRLSRAKEVLLQGGRTTGLEHHHHHH” here?
A: soluble

Q: For “MTADANKSESLLCMDKAREAIKSGDTDKARRMLLKAKKLDPGQNIEFLTKKIDDMTNNTSSSSQTSSSRASEERSYAHDDHYDDPNLRNRKARSPVKKNGKTEPEPKQRSASRTPKLGVDYTSEQKELVERIRHCKDYYEILKIDKKASDDDIRKEYRKLALKLHPDKCRAPHATEAFKALGNAYAVLSDTDK”, which “soluble on expression in E. coli” value is on record?
A: not soluble

Q: For “MAKRVIIAGGNIAGTIVANRLVQKLEHEVNKGDVEIVALNKSDEHIYLPGQLLVGFGLETPGELVRKESELLDPRIKFLHGQKGTISKIDVANHSVQTADGVSHSYDYLVITTGVDYTWDEIPGYRSAAHTVYEYDDAIKMREALEKFDGGTIVVNTAKLPHRCPVAPLEVTLILDDYLRKRGIRDKTKIIYTYPVQGVFGRPITNKFMLRLFEQRGIEVHSPFTVTSVDPNNKVIESQEGEKLKFDMLIGIPPNMGAKVIEDSGIGDRRRWVPTDKFTLRMKDHSNVYVMGDATDLPVSKAGSTADFESYTVAHNIANDIKGNLGVKHYGGDVLCYIATGTDQATYIRFSYTMNESPPPPSYVHWWGKIMYNKMYWTVTAKAVVLEHHHHHH”, which “soluble on expression in E. coli” value is on record?
A: not soluble

Q: Which “soluble on expression in E. coli” value does the source give for “NEHSKWMILDRVRFTLDGLECDKIGVGYEAYRNQPNFCSAPYGSCLGNQLWNFWEYDKRRIDNSQLPLYIVEGRFQRINQHPNAGAHTFSVGVTEDLNTNLLIELMADDIEYVYQRSPAKIIDIRVPTFEALSQVGIANVTTKNIGKLESSYSLTFKCSSGISPVEEQLYTMKPDEVIARSFELRSTTDQAAMHQCEAILKASDFSELDREGYRFSTAATVYNNGAQIGPTNDHKKGGFWDSIKALWRNLIDFLTGRLCWTKCPRLFDFGCHI” here?
A: not soluble

Q: Which “soluble on expression in E. coli” value does the source give for “MDYLPLFADLKQRPVLIVGGGEVAARKIELLHRAGAQVWVVAQTLSSELEQQYQDGRIHWLAQDFLPEQLDNVFLVIAATNDTVLNAAVFAAADQRCILANVVDDQPLCSFIFPSIVDRSPLVVAISSSGQAPVLARILREKLEALLPTRLSDMAAIAGRWRGRVKQHMASMGERRRFWEHAFSGRFASLISRGQLTEAENELQLSLEGQHRALGEVALVGAGPGDAGLLTLRGLQVMQQADVVLYDHLVSPEVLDLVRRDAERICVGKRAGAHSVTQEATNQLLVTLAQQGKRVVRLKGGDPFIFGRGGEELQVVAQAGIPFQVVPGVTAAAGATAYAGIPLTHRDHAQSVTFITGHCRPDGDDLDWQTLARGRQTLAIYMGTVKAAAISQQLIAHGRSSTTPVAVIGRGTRVDQQVLIGTLAQLESLAQQAPTPALLVIGEVVNLHHQIAWFGQQPQTESAISPSVVNLA” here?
A: not soluble

Q: For “MRSQSTHSQSMRSDIYLLLATLLRDVPSAELCAFLAELDFEANGTEMAKAWQAMSAAAQNAQADSLADEYQELFIGIGRGEVVPFASWHLTGSLMEKPLADIRDDLSRLGLERDEQVREPEDHISALCETMAYLCEESGDENAAEETQQAFFNRHIAPWFGKLVSQIRQAPHAQFYLAVAQLLDAFLSLEQVAMTQAPSSRKNRYRIEVKNLTDKAEQ”, which “soluble on expression in E. coli” value is on record?
A: not soluble

Q: Which “soluble on expression in E. coli” value does the source give for “MWDERFSQSEYVYGTEPNDFLVSVANQIPQGKILCLAEGEGRNACFLASLGYEVTAVDQSSVGLAKAKQLAQEKGVKITTVQSNLADFDIVADAWEGIVSIFCHLPSSLRQQLYPKVYQGLKPGGVFILEGFAPEQLQYNTGGPKDLDLLPKLETLQSELPSLNWLIANNLERNLDEGAYHQGKAALIQLLGQKLEHHHHHH” here?
A: soluble

Q: Which “soluble on expression in E. coli” value does the source give for “NLLDDAVKRISEDPPCKCPTKFCVERLSQGRYRVGEKILFIRMLHNKHVMVRVGGGWETFAGYLLKHDPCRMLQISRVDGKTSP” here?
A: soluble

Q: Which “soluble on expression in E. coli” value does the source give for “MVSFTKDQIADIIRKVGDGTSPEALESAVRNVLAKLQSEGLSAPASQGGKLDASSYPLGIKRKDLVKSATGLGLDDITIEKVVSGEIQFDDIKTRPETLAYQNEIAKSVNRPNLANNLARAGEMTRIPDARLLEMYNFLRPYRAAKQEMISMAEELEQKYQAPACAKLVREAADVYEKNNRLKGDR” here?
A: not soluble

Q: Which “soluble on expression in E. coli” value does the source give for “MAYRNIKIVKGNGGFGGPLIIAPTDEKHKFIYITGGGEKPEIVDKIVELTGMEAVNGFKTSIPDEEIALAIVDCGGTLRCGIYPKKGIPTINIVATGKSGPLAQYITEDIYVSAVGMEQITSIEESAGSIETKEAKAETAQSQTGTGTYDTSKKITEQRAQQSVIARIGMGAGKVVAVFNQAARDAIQ” here?
A: not soluble
